Source: patent publication US20250213684A1 (Novartis, published 2025)
Blank lines part the entries; values can stand above or below the binder they belong to.

Assays:
[1] = biological target: T1, murine TIM-3 expressed in cells (murine, UniProt Q8VIM0 20-281); assay: flow cytometry on cells expressing murine TIM-3
T1 construct: whole, on cells; also called mouse TIM-3

[2] = biological target: T2, cynomolgus TIM-3 expressed on transfected cells (cynomolgus monkey, UniProt A0A2K5U3G7 22-294); assay: flow cytometry (Median FI-FITC), CynoTim-3-300.19 cells
T2 construct: whole, on cells; also called cynoTIM-3; cynomolgus monkey TIM-3
T2 sequence: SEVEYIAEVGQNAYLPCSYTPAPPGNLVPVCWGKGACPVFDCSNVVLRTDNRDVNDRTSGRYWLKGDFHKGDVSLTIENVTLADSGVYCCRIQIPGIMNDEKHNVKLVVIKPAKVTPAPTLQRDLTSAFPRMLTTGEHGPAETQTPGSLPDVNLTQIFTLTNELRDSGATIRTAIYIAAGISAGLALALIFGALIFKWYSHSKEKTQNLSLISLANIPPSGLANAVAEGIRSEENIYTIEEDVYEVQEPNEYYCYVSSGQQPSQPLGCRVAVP

[3] = biological target: T3, human TIM-3 expressed on cells (human, UniProt Q8TDQ0 22-301); assay: flow cytometry on cells expressing human TIM-3
T3 construct: also called huTIM-3; hTIM-3

[4] = biological target: T3, human TIM-3 expressed on cells; assay: flow cytometry on activated human PBMCs, CD4 gated
[5] = biological target: T4, TIM-3 (antigen; species and construct not stated for the assay) (UniProt Q8TDQ0 22-202, limits assumed); assay: FACS competition binding against the parent murine ABTIM3; cells not named on the sheet
[6] = biological target: T3, human TIM-3 expressed on cells; assay: flow cytometry, 300.19 huTIM3 cells, detected by secondary Ab-FITC
[7] = biological target: T3, human TIM-3 expressed on cells; assay: flow cytometry on activated human PBMCs, CD8 gated
[8] = biological target: T5, human TIM-4 expressed in CHO cells (human, UniProt Q96H15 25-378); assay: flow cytometry on CHO cells expressing human TIM-4
T5 construct: whole, on cells
T5 sequence (looked up): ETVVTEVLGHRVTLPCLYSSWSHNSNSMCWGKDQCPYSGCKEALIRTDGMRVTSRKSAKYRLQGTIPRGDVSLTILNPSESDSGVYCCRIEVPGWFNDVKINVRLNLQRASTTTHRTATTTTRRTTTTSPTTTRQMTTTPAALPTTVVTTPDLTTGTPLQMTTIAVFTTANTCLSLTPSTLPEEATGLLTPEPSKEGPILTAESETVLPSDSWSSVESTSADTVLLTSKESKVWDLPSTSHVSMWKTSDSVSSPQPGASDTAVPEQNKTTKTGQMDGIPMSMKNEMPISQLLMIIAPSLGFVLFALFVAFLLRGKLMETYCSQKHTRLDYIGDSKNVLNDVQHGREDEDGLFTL

[9] = biological target: T3, human TIM-3 expressed on cells; assay: flow cytometry competition on 300.19 hTIM3 cells in presence of ABTIM3; signal is MFI of 0.51ug/ml 22C1-PE
huTIM-3/his [10] = biological target: T6, huTIM-3/his (human, UniProt Q8TDQ0 22-202); assay: SPR (Biacore), run 1
T6 construct: also called hTIM-3/his antigen

cynoTIM-3/Fc [11] = biological target: T7, cynoTIM-3/Fc (cynomolgus monkey, UniProt A0A2K5U3G7 22-195); assay: SPR (Biacore), run 1
T7 sequence: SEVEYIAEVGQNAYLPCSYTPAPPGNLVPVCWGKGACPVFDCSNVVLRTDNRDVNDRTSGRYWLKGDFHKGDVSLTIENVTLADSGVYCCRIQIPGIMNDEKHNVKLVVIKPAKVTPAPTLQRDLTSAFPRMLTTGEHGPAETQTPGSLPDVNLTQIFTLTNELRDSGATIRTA

huTIM-3/his [12] = biological target: T6, huTIM-3/his; assay: SPR (Biacore), run 2
cynoTIM-3/Fc [13] = biological target: T7, cynoTIM-3/Fc; assay: SPR (Biacore), run 2
[14] = biological target: T4, TIM-3 (antigen; species and construct …); assay: SPR (Biacore), run of May 30, 2014
huTIM-3/his [15] = biological target: T6, huTIM-3/his; assay: SPR (Biacore), run 3
cynoTIM-3/Fc [16] = biological target: T7, cynoTIM-3/Fc; assay: SPR (Biacore), run 3
ratTIM-3/Fc = biological target: T8, ratTIM-3/Fc (rat, UniProt P0C0K5 22-194, limits assumed); assay: SPR (Biacore), run 3
T8 construct: also called rat TIM-3/Fc protein
T8 sequence (looked up): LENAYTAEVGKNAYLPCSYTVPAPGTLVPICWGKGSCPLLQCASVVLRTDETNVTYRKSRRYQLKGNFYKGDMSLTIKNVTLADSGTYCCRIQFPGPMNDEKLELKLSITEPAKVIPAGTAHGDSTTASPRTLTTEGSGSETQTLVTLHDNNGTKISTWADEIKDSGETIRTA

huTIM-3/his [17] = biological target: T6, huTIM-3/his; assay: Biacore, 2nd antibody injection; 1st antibody (competitor) huIgG1
huTIM-3/his [18] = biological target: T6, huTIM-3/his; assay: Biacore, 2nd antibody injection; 1st antibody (competitor) ABTIM3-hum21
[19] = biological target: T3, human TIM-3 expressed on cells; assay: flow cytometry competition on 300.19 hTIM-3 cells against PE-labelled ABTIM3-hum21
huTIM-3/his [20] = biological target: T6, huTIM-3/his; assay: Biacore, 2nd antibody injection; 1st antibody (competitor) ABTIM3-hum03
huTIM-3/his [21] = biological target: T6, huTIM-3/his; assay: SPR (Biacore), mean KD
cynoTIM-3/Fc [22] = biological target: T7, cynoTIM-3/Fc; assay: SPR (Biacore), mean KD

T1 sequence (Q8VIM0 20-281): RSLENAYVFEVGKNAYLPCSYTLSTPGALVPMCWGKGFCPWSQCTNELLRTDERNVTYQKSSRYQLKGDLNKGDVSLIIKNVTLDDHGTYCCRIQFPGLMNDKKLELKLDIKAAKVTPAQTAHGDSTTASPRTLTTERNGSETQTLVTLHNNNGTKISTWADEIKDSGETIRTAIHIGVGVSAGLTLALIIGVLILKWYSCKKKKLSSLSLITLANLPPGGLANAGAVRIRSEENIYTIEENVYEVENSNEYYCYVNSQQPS

binding result [1]: no binding
EC50 (read off the curve) [2]: ~0.3 µg/mL
Kd [3]: 1.04 nM
Kd [4]: 0.29 nM
IC50 (read off the curve) [5]: ~0.2 µg/mL
EC50 (read off the curve) [6]: ~0.1 µg/mL
Kd [7]: 0.3 nM
binding result [8]: no binding
IC50 (read off the curve) [9]: ~0.2 µg/mL
B1: ABTIM3 (antibody, V domains shown)
VH: QVQLQQPGAELVKPGASVKMSCKASGYTFTSYNMHWIKQTPGQGLEWIGDIYPGNGDTSYNQKFKGKATLTADKSSSTVYMQLSSLTSEDSAVYYCARVGGAFPMDYWGQGTSVTVSS
VL: DIVLTQSPASLAVSLGQRATISCRASESVEYYGTSLMQWYQQKPGQPPKLLIYAASNVESGVPARFSGSGSGTDFSLNIHPVEEDDIAIYFCQQSRKDPSTFGGGTKLEIK
notes: Murine monoclonal antibody; also called murine anti-TIM-3 antibody ABTIM3; parent murine anti-TIM-3 antibody

Kd (huTIM-3/his [10]): 0.155 nM
Kd (cynoTIM-3/Fc [11]): 1.24 nM
Kd (huTIM-3/his [12]): 0.226 nM
Kd (cynoTIM-3/Fc [13]): 3.14 nM
Kd [3]: 0.906 nM
Kd [14]: 0.194 nM
EC50 (read off the curve) [6]: ~0.1 µg/mL
Kd (huTIM-3/his [15]): 0.109 nM
Kd (cynoTIM-3/Fc [16]): 5.04 nM
Kd (ratTIM-3/Fc): 297 nM
change in RU (huTIM-3/his [17]): 83.2 RU
change in RU (huTIM-3/his [18]): 8.1 RU
IC50 (read off the curve) [19]: ~0.4 µg/mL
change in RU (huTIM-3/his [20]): 8.5 RU
Kd (huTIM-3/his [21]): 0.163 nM
Kd (cynoTIM-3/Fc [22]): 3.14 nM
IC50 (read off the curve) [9]: ~0.2 µg/mL
B2: ABTIM3-hum11 (antibody, human IgG4 S228P, kappa, V domains shown)
VH: QVQLVQSGAEVKKPGSSVKVSCKASGYTFTSYNMHWVRQAPGQGLEWMGDIYPGNGDTSYNQKFKGRVTITADKSTSTVYMELSSLRSEDTAVYYCARVGGAFPMDYWGQGTTVTVSS
VL: AIQLTQSPSSLSASVGDRVTITCRASESVEYYGTSLMQWYQQKPGKAPKLLIYAASNVESGVPSRFSGSGSGTDFTLTISSLQPEDFATYFCQQSRKDPSTFGGGTKVEIKR
notes: Humanized; Immobilized on Protein G beads and cross-linked with DSS in the HDx-MS experiment
